Publication PMC12693483, “A screen for synthetic genetic interactions with the Saccharomyces cerevisiae hrq1ΔN allele”

Target: T1, Hrq1 (Saccharomyces cerevisiae, UniProt Q05549 1-1077)
T1 sequence: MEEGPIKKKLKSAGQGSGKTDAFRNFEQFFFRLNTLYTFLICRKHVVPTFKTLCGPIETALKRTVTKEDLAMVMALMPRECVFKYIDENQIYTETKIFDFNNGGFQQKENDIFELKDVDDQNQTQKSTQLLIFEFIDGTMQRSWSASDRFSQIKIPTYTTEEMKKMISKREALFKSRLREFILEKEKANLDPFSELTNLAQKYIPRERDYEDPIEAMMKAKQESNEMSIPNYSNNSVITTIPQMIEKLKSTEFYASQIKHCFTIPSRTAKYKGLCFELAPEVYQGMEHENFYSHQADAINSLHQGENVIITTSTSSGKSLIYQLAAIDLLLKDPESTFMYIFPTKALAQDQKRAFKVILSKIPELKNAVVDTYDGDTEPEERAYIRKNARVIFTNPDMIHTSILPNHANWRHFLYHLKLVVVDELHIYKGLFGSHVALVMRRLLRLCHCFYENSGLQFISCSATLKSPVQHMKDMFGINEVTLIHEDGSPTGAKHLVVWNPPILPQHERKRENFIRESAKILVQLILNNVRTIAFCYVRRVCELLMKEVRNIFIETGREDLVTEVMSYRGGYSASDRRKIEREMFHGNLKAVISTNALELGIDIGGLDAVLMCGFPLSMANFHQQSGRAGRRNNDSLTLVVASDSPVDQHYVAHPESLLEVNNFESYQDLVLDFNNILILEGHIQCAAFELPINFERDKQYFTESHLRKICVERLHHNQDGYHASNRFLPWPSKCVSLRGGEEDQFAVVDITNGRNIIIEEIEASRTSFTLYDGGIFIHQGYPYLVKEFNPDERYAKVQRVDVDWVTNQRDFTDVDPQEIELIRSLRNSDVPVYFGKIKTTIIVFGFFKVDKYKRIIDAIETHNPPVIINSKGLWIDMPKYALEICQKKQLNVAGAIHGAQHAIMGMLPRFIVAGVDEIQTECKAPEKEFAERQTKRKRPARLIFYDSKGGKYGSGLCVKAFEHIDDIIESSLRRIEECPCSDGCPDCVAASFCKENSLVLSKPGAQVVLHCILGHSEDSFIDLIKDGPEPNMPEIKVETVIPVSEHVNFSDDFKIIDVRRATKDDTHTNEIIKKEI
Test: EMSA; 0.2-5 nM protein; 7.5 mM MgOAc; no ATP stated; EMSA: 0.1 nM labelled DNA, 25 mM Na-HEPES pH 8.0, 5% glycerol, 50 mM NaOAc pH 7.6, 150 µM NaCl, 7.5 mM MgOAc, 0.01% Tween-20, 30 min at 30 °C; 8% 19:1 gel in 1x TBE
Settings: protein: recombinant; label: 5'-32P; single strand

B1: poly(dT) 30mer (ssDNA)
DNA: TTTTTTTTTTTTTTTTTTTTTTTTTTTTTT
B1: binds.
